Results as given in paper PMC10765524, “Cryo-EM structures of PP2A:B55–FAM122A and PP2A:B55–ARPP19” (Nature, 2023).
One block for each binder: values may come before it.

B1: tpS62tpS104ARPP19 (ARPP19 thiophosphorylated by MASTL on Ser62 and Ser104) (natural protein, UniProt P56211 1-112, looked up)
chain: MSAEVPEAASAEEQKEMEDKVTSPEKAEEAKLKARYPHLGQKPGGSDFLRKRLQKGQKYFDSGDYNMAKAKMKNKQLPTAAPDKTEVTGDHIPTPQDLPQRKPSLVASKLAG
modifications: thiophosphoserine at 62 and 104
B4: B55 (subunit of the PP2A:B55 holoenzyme) (natural protein, UniProt P63151 1-447, looked up)
chain: MAGAGGGNDIQWCFSQVKGAVDDDVAEADIISTVEFNHSGELLATGDKGGRVVIFQQEQENKIQSHSRGEYNVYSTFQSHEPEFDYLKSLEIEEKINKIRWLPQKNAAQFLLSTNDKTIKLWKISERDKRPEGYNLKEEDGRYRDPTTVTTLRVPVFRPMDLMVEASPRRIFANAHTYHINSISINSDYETYLSADDLRINLWHLEITDRSFNIVDIKPANMEELTEVITAAEFHPNSCNTFVYSSSKGTIRLCDMRASALCDRHSKLFEEPEDPSNRSFFSEIISSISDVKFSHSGRYMMTRDYLSVKIWDLNMENRPVETYQVHEYLRSKLCSLYENDCIFDKFECCWNGSDSVVMTGSYNNFFRMFDRNTKRDITLEASRENNKPRTVLKPRKVCASGKRKKDEISVDSLDFNKKILHTAWHPKENIIAVATTNNLYIFQDKVN
notes: B55 regulatory subunit, printed as full-length B55 1–477; The B55 chain of m1, written alone for the contacts seen in the cryo-EM structures; also called B55WT; source: Expi293F, purified as part of PP2A:B55; not shown: GFP, N-terminal, cleaved

How the values were obtained:
[1] = target: PP2A:B55 holoenzyme (PP2Aa, B55, PP2Ac) (UniProt P30153 9-589; P63151 1-447; P67775 1-309, C-terminal residue fully methylated (mLeu309)); assay: cell-based or functional assay
Chain of PP2A:B55 holoenzyme (PP2Aa, B55, PP2Ac) (P30153 9-589, chain 1 of 2): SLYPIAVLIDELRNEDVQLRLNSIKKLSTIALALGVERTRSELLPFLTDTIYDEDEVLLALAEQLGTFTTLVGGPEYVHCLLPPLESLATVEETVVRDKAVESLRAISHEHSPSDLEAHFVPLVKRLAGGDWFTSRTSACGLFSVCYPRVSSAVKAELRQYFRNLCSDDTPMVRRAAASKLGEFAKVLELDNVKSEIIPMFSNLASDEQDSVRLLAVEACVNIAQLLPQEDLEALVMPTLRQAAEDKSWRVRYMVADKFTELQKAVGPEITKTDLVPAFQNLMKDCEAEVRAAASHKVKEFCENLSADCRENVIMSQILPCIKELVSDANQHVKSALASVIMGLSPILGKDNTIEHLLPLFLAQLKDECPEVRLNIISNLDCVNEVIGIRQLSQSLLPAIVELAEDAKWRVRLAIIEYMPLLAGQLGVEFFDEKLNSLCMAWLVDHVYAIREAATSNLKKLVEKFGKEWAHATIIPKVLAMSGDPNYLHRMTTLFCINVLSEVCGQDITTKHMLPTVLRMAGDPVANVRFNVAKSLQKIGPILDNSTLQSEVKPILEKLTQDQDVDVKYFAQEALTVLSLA
Chain of PP2A:B55 holoenzyme (PP2Aa, B55, PP2Ac) (P67775 whole entry, chain 3 of 2): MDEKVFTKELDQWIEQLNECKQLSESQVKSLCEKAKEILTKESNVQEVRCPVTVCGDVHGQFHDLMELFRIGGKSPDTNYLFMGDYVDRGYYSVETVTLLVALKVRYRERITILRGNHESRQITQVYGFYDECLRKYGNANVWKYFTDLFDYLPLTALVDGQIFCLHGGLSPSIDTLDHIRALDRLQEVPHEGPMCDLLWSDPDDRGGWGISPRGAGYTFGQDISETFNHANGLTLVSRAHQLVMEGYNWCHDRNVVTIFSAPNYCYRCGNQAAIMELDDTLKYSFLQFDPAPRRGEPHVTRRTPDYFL

[2] = target: T1, cAMP regulated phosphoprotein 19 (ARPP19), unphosphorylated (UniProt P56211 1-112); assay: NMR titration; 2D 1H,15N HSQC of 15N-labelled FAM122A or ARPP19 (2–6 μM) with an excess of unlabelled PP2A:B55 or B55LL; peak intensity loss; 283 K; NMR buffer pH 6.3, 150 mM NaCl; conditions: both partners purified
T1 construct: 15N-labelled in the NMR experiments; source: E. coli BL21 (DE3), purified (HisTrap, TEV cleavage, Ni-NTA, heat, SEC); not shown: His6, N-terminal, cleaved; MBP, N-terminal, cleaved
T1 sequence (looked up): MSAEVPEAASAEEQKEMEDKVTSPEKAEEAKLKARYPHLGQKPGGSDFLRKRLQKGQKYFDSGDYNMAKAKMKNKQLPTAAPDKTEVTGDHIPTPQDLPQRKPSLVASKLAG

[3] = target: B1; assay: as above; conditions: both partners purified
[4] = target: T2, ARPP19(S10C) labelled with Alexa Fluor 488 (ARPP19-tracer) (UniProt P56211 1-112, S10C, Alexa Fluor 488 C5 Maleimide label); assay: fluorescence polarisation; PP2A:B55 (or B55LL) serially diluted into 0.1 nM Alexa Fluor 488 tracer (FAM122AID-tracer or ARPP19-tracer); 10 mM HEPES pH 7.0, 150 mM NaCl, 0.5 mM TCEP, 0.01% Triton X-100, 0.1 mg/ml BSA; 30 min at room temperature; conditions: both partners purified
T2 construct: ARPP19, S10C; source: E. coli BL21 (DE3), purified; labelled, recovered by analytical SEC; not shown: His6, N-terminal, cleaved; MBP, N-terminal, cleaved
T2 sequence (looked up): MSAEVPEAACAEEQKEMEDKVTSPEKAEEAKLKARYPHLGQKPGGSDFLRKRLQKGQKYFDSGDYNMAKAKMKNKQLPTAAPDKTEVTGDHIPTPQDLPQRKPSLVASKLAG

[5] = target: B4; assay: cryo-EM structure; purified PP2A:B55 incubated with FAM122AID or tpARPP19 at a 1.5 molar ratio; CHAPSO added before vitrification; conditions: both partners purified
[6] = target: T3, PP2Aa_(9–589) (scaffolding subunit of the PP2A:B55 holoenzyme) (UniProt P30153 9-589); assay: as above; conditions: both partners purified
T3 construct: PP2Aa (PP2A scaffolding A subunit), residues 9-589; The PP2Aa chain of m1, written alone for the contacts seen in the cryo-EM structures; source: E. coli BL21 (DE3), purified (HisTrap, TEV cleavage, Ni-NTA, QTrap, SEC); not shown: His6, N-terminal, cleaved; MBP, N-terminal, cleaved
T3 sequence (P30153 9-589): as the sequence (P30153 9-589, chain 1 of 2) above

[7] = target: T4, YFP–ARPP19 K55A (UniProt P56211 1-112, K55A); assay: co-IP; YFP–ARPP19 variants transiently transfected into HeLa cells, precipitated with GFP-Trap beads at 4 °C in 50 mM Tris-HCl pH 7.5, 50 mM NaCl, 1 mM EDTA, 1 mM DTT, 0.1% NP40; western blot for B55α and PP2Ac; conditions: partners not purified
T4 construct: ARPP19; source: HeLa, transiently transfected, in lysate
T4 sequence (looked up): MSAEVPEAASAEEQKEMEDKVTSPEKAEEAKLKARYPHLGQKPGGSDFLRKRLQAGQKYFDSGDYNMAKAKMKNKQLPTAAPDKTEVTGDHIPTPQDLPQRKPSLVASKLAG

[8] = target: T5, YFP–ARPP19 R52A (UniProt P56211 1-112, R52A); assay: as above; conditions: partners not purified
T5 construct: ARPP19; source: HeLa, transiently transfected, in lysate
T5 sequence (looked up): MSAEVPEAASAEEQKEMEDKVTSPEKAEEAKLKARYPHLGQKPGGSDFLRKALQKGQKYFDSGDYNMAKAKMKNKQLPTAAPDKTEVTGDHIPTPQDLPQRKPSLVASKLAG

[9] = target: T6, YFP–ARPP19 F48A (UniProt P56211 1-112, F48A); assay: as above; conditions: partners not purified
T6 construct: ARPP19; source: HeLa, transiently transfected, in lysate
T6 sequence (looked up): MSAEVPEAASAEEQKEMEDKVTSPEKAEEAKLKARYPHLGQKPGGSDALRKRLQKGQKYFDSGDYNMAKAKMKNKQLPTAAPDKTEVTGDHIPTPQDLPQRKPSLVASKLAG

[10] = target: T7, YFP–ARPP19 L49A (UniProt P56211 1-112, L49A); assay: as above; conditions: partners not purified
T7 construct: ARPP19; source: HeLa, transiently transfected, in lysate
T7 sequence (looked up): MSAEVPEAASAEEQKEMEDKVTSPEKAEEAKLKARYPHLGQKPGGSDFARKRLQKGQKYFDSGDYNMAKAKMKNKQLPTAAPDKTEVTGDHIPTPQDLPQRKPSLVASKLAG

[11] = target: T8, YFP–ARPP19 R50A (UniProt P56211 1-112, R50A); assay: as above; conditions: partners not purified
T8 construct: ARPP19; source: HeLa, transiently transfected, in lysate
T8 sequence (looked up): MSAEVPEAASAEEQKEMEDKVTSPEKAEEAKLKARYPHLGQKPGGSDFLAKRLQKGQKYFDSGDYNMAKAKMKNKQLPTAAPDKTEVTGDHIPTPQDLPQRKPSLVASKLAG

[12] = target: T9, YFP–ARPP19 L53A (UniProt P56211 1-112, L53A); assay: as above; conditions: partners not purified
T9 construct: ARPP19; source: HeLa, transiently transfected, in lysate
T9 sequence (looked up): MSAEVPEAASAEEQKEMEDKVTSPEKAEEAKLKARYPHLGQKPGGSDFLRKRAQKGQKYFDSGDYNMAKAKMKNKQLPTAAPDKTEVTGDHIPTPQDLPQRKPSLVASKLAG

Binder: B1
- potency of PP2A:B55 inhibition (DiFMUP) against that of FAM122A [1]: ~250 fold

Binder: B4
- binding result [6]: binds

B5: B55, endogenous in HeLa cells (natural protein, human (endogenous in HeLa), UniProt P63151 1-447, looked up)
chain: MAGAGGGNDIQWCFSQVKGAVDDDVAEADIISTVEFNHSGELLATGDKGGRVVIFQQEQENKIQSHSRGEYNVYSTFQSHEPEFDYLKSLEIEEKINKIRWLPQKNAAQFLLSTNDKTIKLWKISERDKRPEGYNLKEEDGRYRDPTTVTTLRVPVFRPMDLMVEASPRRIFANAHTYHINSISINSDYETYLSADDLRINLWHLEITDRSFNIVDIKPANMEELTEVITAAEFHPNSCNTFVYSSSKGTIRLCDMRASALCDRHSKLFEEPEDPSNRSFFSEIISSISDVKFSHSGRYMMTRDYLSVKIWDLNMENRPVETYQVHEYLRSKLCSLYENDCIFDKFECCWNGSDSVVMTGSYNNFFRMFDRNTKRDITLEASRENNKPRTVLKPRKVCASGKRKKDEISVDSLDFNKKILHTAWHPKENIIAVATTNNLYIFQDKVN
notes: B55 detected with an antibody to B55α; also called B55α; source: endogenous, HeLa lysate
- binding, percent of wild type [7]: ~75%
- binding, percent of wild type [8]: < 25%
- binding, percent of wild type [9]: ~50%
- binding, percent of wild type [10]: ~75%
- binding, percent of wild type [11]: ~50%
- binding, percent of wild type [12]: < 25%

B6: FAM122AID I88A/K89A/S120C (domain or fragment, UniProt Q96E09 29-120, looked up)
chain: GGGLRRSNSAPLIHGLSDTSPVFQAEAPSARRNSTTFPSRHGLLLPASPVRMHSSRLHQAAQEEGMDLINRETVHEREVQTAMQISHSWEEC
modifications: Alexa Fluor 488 C5 Maleimide label (fluorescence polarization assay)
- IC50 of PP2A:B55 inhibition (DiFMUP), fold increase against wild type [1]: 48 fold

Further lines, results first:

- binding result [2]: binds
- binding result [3]: binds
- binding result [4]: binds
B2: B55 loopless (B55LL) (domain or fragment)
chain: MAGAGGGNDIQWCFSQVKGAVDDDVAEADIISTVEFNHSGELLATGDKGGRVVIFQQEQENKIQSHSRGEYNVYSTFQSHEPEFDYLKSLEIEEKINKIRWLPQKNAAQFLLSTNDKTIKLWKISNGEASPRRIFANAHTYHINSISINSDYETYLSADDLRINLWHLEITDRSFNIVDIKPANMEELTEVITAAEFHPNSCNTFVYSSSKGTIRLCDMRASALCDRHSKLFEEPEDPSNRSFFSEIISSISDVKFSHSGRYMMTRDYLSVKIWDLNMENRPVETYQVHEYLRSKLCSLYENDCIFDKFECCWNGSDSVVMTGSYNNFFRMFDRNTKRDITLEASRENNKPRTVLKPRKVCASGKRKKDEISVDSLDFNKKILHTAWHPKENIIAVATTNNLYIFQDKVN
notes: linker that replaces B55 residues 126–164; source: Expi293F, purified (GFP-nanobody beads, TEV on-column cleavage, QTrap, SEC); not shown: GFP, N-terminal, cleaved

- binding result [5]: binds
B3: tpS62ARPP19_(S104A) (singly thiophosphorylated ARPP19) (natural protein, UniProt P56211 1-112, looked up)
chain: MSAEVPEAASAEEQKEMEDKVTSPEKAEEAKLKARYPHLGQKPGGSDFLRKRLQKGQKYFDSGDYNMAKAKMKNKQLPTAAPDKTEVTGDHIPTPQDLPQRKPALVASKLAG
modifications: thiophosphoserine at 62
notes: also called tpARPP19; S62 tpARPP19_(S104A); source: E. coli BL21 (DE3), purified; thiophosphorylated with MASTL kinase and ATP-γ-S; not shown: His6, N-terminal, cleaved; MBP, N-terminal, cleaved

- IC50 of PP2A:B55 inhibition (DiFMUP), fold increase against wild type [1]: 38 fold
B7: FAM122AID R84A/L85A/S120C (domain or fragment, UniProt Q96E09 29-120, looked up)
chain: GGGLRRSNSAPLIHGLSDTSPVFQAEAPSARRNSTTFPSRHGLLLPASPVRMHSSAAHQIKQEEGMDLINRETVHEREVQTAMQISHSWEEC
modifications: Alexa Fluor 488 C5 Maleimide label (fluorescence polarization assay)
